Reference: US20140087995A1 (published 2014)
Numbered stars: 1 amine (or outer) side, 2 acyl side, 3 side chain; on linkers, the order of the positions; unused ones are H or OH. Bridge positions count the residues as written; N and C are the ends. Side chains are listed from the residue outwards. Ends that are not written are not given here. * marks the point of attachment. C20 diacid = O=C(O)CCCCCCCCCCCCCCCCCCC(=O)*; γGlu = O=C(O)[C@H](CCC(=O)[*:2])N[*:1]; AEEA = NCCOCCOCC(=O)O

T1: human calcitonin receptor (human, UniProt P30988 25-474)
T1 construct: whole, on cells; Assayed as cell membranes of BHK tk'ts 13 cells stably transfected with the human calcitonin receptor (Assay VII); also called hCTR; hCT
T1 sequence (looked up): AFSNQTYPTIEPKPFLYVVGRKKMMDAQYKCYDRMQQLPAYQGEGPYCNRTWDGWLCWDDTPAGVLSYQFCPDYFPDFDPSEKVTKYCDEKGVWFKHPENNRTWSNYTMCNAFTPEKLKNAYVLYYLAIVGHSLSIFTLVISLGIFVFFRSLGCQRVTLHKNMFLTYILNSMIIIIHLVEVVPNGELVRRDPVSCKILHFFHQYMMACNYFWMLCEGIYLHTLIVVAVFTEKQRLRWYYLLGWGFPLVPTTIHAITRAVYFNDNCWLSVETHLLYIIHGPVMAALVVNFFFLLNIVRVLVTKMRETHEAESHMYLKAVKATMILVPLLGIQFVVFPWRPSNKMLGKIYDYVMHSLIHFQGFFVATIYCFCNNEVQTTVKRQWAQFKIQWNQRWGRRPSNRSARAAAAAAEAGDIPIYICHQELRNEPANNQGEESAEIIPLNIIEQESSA


Columns and labels:
[1] = target: T1, human calcitonin receptor; assay: SPA competition vs 125I-calcitonin, membranes of BHK cells with human calcitonin receptor (Assay VII)
Summary of the method: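 BHK hCTR membranes 35 ng/μL + SPA beads 0.05 mg/well; buffer 50 mM Hepes pH 7.4, 1 mM CaCl2, 5 mM MgCl₂, 0.1% OA, 0.02% Tween20. 120 min, 25° C., shaking. Scintillation count; IC50 by one-site binding competition.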

[2] = target: T1, human calcitonin receptor; assay: IC50 at hCTR divided by IC50 at hAmylin-R (SPA competition assays V and VII)
Summary of the method: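 Competition binding by SPA uses membrane preparations (35 ng/μL final) in pH 7.4 Hepes buffer with 1 mM CaCl2 and 5 mM MgCl₂. Incubation lasts 120 min at 25° C, and IC₅₀ comes from one-site fitting.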

Binder	IC50 [1] [nM]	Ratio hCT/hAmylin binding [2]
K([AEEA-γGlu-C20 diacid])CNTATCATQRLANFLRHSSPNFGAIPSPTPVGSNTY-NH2 (disulfide 2-7; N-terminus assumed; SMILES CC[C@H](C)[C@H](NC(=O)[C@H](C)NC(=O)CNC(=O)[C@H](Cc1ccccc1)NC(=O)[C@H](CC(N)=O)NC(=O)[C@@H]1CCCN1C(=O)[C@H](CO)NC(=O)[C@H](CO)NC(=O)[C@H](Cc1c[nH]cn1)NC(=O)[C@H](CCCNC(=N)N)NC(=O)[C@H](CC(C)C)NC(=O)[C@H](Cc1ccccc1)NC(=O)[C@H](CC(N)=O)NC(=O)[C@H](C)NC(=O)[C@H](CC(C)C)NC(=O)[C@H](CCCNC(=N)N)NC(=O)[C@H](CCC(N)=O)NC(=O)[C@@H](NC(=O)[C@H](C)NC(=O)[C@@H]1CSSC[C@H](NC(=O)[C@@H](N)CCCCNC(=O)COCCOCCNC(=O)CC[C@H](NC(=O)CCCCCCCCCCCCCCCCCCC(=O)O)C(=O)O)C(=O)N[C@@H](CC(N)=O)C(=O)N[C@@H]([C@@H](C)O)C(=O)N[C@@H](C)C(=O)N[C@@H]([C@@H](C)O)C(=O)N1)[C@@H](C)O)C(=O)N1CCC[C@H]1C(=O)N[C@@H](CO)C(=O)N1CCC[C@H]1C(=O)N[C@H](C(=O)N1CCC[C@H]1C(=O)N[C@H](C(=O)NCC(=O)N[C@@H](CO)C(=O)N[C@@H](CC(N)=O)C(=O)N[C@H](C(=O)N[C@@H](Cc1ccc(O)cc1)C(N)=O)[C@@H](C)O)C(C)C)[C@@H](C)O, also called compound 54)	4.38	146
K([AEEA-γGlu-C20 diacid])CNTATCATQRLANFLRHSSPNFGAIPSSTNVGPHTY-NH2 (disulfide 2-7; N-terminus assumed; SMILES CC[C@H](C)[C@H](NC(=O)[C@H](C)NC(=O)CNC(=O)[C@H](Cc1ccccc1)NC(=O)[C@H](CC(N)=O)NC(=O)[C@@H]1CCCN1C(=O)[C@H](CO)NC(=O)[C@H](CO)NC(=O)[C@H](Cc1c[nH]cn1)NC(=O)[C@H](CCCNC(=N)N)NC(=O)[C@H](CC(C)C)NC(=O)[C@H](Cc1ccccc1)NC(=O)[C@H](CC(N)=O)NC(=O)[C@H](C)NC(=O)[C@H](CC(C)C)NC(=O)[C@H](CCCNC(=N)N)NC(=O)[C@H](CCC(N)=O)NC(=O)[C@@H](NC(=O)[C@H](C)NC(=O)[C@@H]1CSSC[C@H](NC(=O)[C@@H](N)CCCCNC(=O)COCCOCCNC(=O)CC[C@H](NC(=O)CCCCCCCCCCCCCCCCCCC(=O)O)C(=O)O)C(=O)N[C@@H](CC(N)=O)C(=O)N[C@@H]([C@@H](C)O)C(=O)N[C@@H](C)C(=O)N[C@@H]([C@@H](C)O)C(=O)N1)[C@@H](C)O)C(=O)N1CCC[C@H]1C(=O)N[C@@H](CO)C(=O)N[C@@H](CO)C(=O)N[C@H](C(=O)N[C@@H](CC(N)=O)C(=O)N[C@H](C(=O)NCC(=O)N1CCC[C@H]1C(=O)N[C@@H](Cc1c[nH]cn1)C(=O)N[C@H](C(=O)N[C@@H](Cc1ccc(O)cc1)C(N)=O)[C@@H](C)O)C(C)C)[C@@H](C)O, also called compound 58)	9.63	109
K([AEEA-γGlu-C20 diacid])CNTATCATQRLANFLRHSSPNFGAIPSSTPVGSHTY-NH2 (disulfide 2-7; N-terminus assumed; SMILES CC[C@H](C)[C@H](NC(=O)[C@H](C)NC(=O)CNC(=O)[C@H](Cc1ccccc1)NC(=O)[C@H](CC(N)=O)NC(=O)[C@@H]1CCCN1C(=O)[C@H](CO)NC(=O)[C@H](CO)NC(=O)[C@H](Cc1c[nH]cn1)NC(=O)[C@H](CCCNC(=N)N)NC(=O)[C@H](CC(C)C)NC(=O)[C@H](Cc1ccccc1)NC(=O)[C@H](CC(N)=O)NC(=O)[C@H](C)NC(=O)[C@H](CC(C)C)NC(=O)[C@H](CCCNC(=N)N)NC(=O)[C@H](CCC(N)=O)NC(=O)[C@@H](NC(=O)[C@H](C)NC(=O)[C@@H]1CSSC[C@H](NC(=O)[C@@H](N)CCCCNC(=O)COCCOCCNC(=O)CC[C@H](NC(=O)CCCCCCCCCCCCCCCCCCC(=O)O)C(=O)O)C(=O)N[C@@H](CC(N)=O)C(=O)N[C@@H]([C@@H](C)O)C(=O)N[C@@H](C)C(=O)N[C@@H]([C@@H](C)O)C(=O)N1)[C@@H](C)O)C(=O)N1CCC[C@H]1C(=O)N[C@@H](CO)C(=O)N[C@@H](CO)C(=O)N[C@H](C(=O)N1CCC[C@H]1C(=O)N[C@H](C(=O)NCC(=O)N[C@@H](CO)C(=O)N[C@@H](Cc1c[nH]cn1)C(=O)N[C@H](C(=O)N[C@@H](Cc1ccc(O)cc1)C(N)=O)[C@@H](C)O)C(C)C)[C@@H](C)O, also called compound 57)	15.3	133

The next binders have a lower IC50 [1] than those just listed; values first:

IC50 [1] [nM]	Ratio hCT/hAmylin binding [2]	Binder
2.17	51.8	K([AEEA-γGlu-C20 diacid])CNTATCATQRLANFLRHSSPNFGAIPPSTNVGPNTY-NH2 (disulfide 2-7; N-terminus assumed; SMILES CC[C@H](C)[C@H](NC(=O)[C@H](C)NC(=O)CNC(=O)[C@H](Cc1ccccc1)NC(=O)[C@H](CC(N)=O)NC(=O)[C@@H]1CCCN1C(=O)[C@H](CO)NC(=O)[C@H](CO)NC(=O)[C@H](Cc1c[nH]cn1)NC(=O)[C@H](CCCNC(=N)N)NC(=O)[C@H](CC(C)C)NC(=O)[C@H](Cc1ccccc1)NC(=O)[C@H](CC(N)=O)NC(=O)[C@H](C)NC(=O)[C@H](CC(C)C)NC(=O)[C@H](CCCNC(=N)N)NC(=O)[C@H](CCC(N)=O)NC(=O)[C@@H](NC(=O)[C@H](C)NC(=O)[C@@H]1CSSC[C@H](NC(=O)[C@@H](N)CCCCNC(=O)COCCOCCNC(=O)CC[C@H](NC(=O)CCCCCCCCCCCCCCCCCCC(=O)O)C(=O)O)C(=O)N[C@@H](CC(N)=O)C(=O)N[C@@H]([C@@H](C)O)C(=O)N[C@@H](C)C(=O)N[C@@H]([C@@H](C)O)C(=O)N1)[C@@H](C)O)C(=O)N1CCC[C@H]1C(=O)N1CCC[C@H]1C(=O)N[C@@H](CO)C(=O)N[C@H](C(=O)N[C@@H](CC(N)=O)C(=O)N[C@H](C(=O)NCC(=O)N1CCC[C@H]1C(=O)N[C@@H](CC(N)=O)C(=O)N[C@H](C(=O)N[C@@H](Cc1ccc(O)cc1)C(N)=O)[C@@H](C)O)C(C)C)[C@@H](C)O, also called compound 55)
2.09	42.6	K([AEEA-γGlu-C20 diacid])CNTATCATQRLANFLRHSSPNFGAIPSPTNVGPNTY-NH2 (disulfide 2-7; N-terminus assumed; SMILES CC[C@H](C)[C@H](NC(=O)[C@H](C)NC(=O)CNC(=O)[C@H](Cc1ccccc1)NC(=O)[C@H](CC(N)=O)NC(=O)[C@@H]1CCCN1C(=O)[C@H](CO)NC(=O)[C@H](CO)NC(=O)[C@H](Cc1c[nH]cn1)NC(=O)[C@H](CCCNC(=N)N)NC(=O)[C@H](CC(C)C)NC(=O)[C@H](Cc1ccccc1)NC(=O)[C@H](CC(N)=O)NC(=O)[C@H](C)NC(=O)[C@H](CC(C)C)NC(=O)[C@H](CCCNC(=N)N)NC(=O)[C@H](CCC(N)=O)NC(=O)[C@@H](NC(=O)[C@H](C)NC(=O)[C@@H]1CSSC[C@H](NC(=O)[C@@H](N)CCCCNC(=O)COCCOCCNC(=O)CC[C@H](NC(=O)CCCCCCCCCCCCCCCCCCC(=O)O)C(=O)O)C(=O)N[C@@H](CC(N)=O)C(=O)N[C@@H]([C@@H](C)O)C(=O)N[C@@H](C)C(=O)N[C@@H]([C@@H](C)O)C(=O)N1)[C@@H](C)O)C(=O)N1CCC[C@H]1C(=O)N[C@@H](CO)C(=O)N1CCC[C@H]1C(=O)N[C@H](C(=O)N[C@@H](CC(N)=O)C(=O)N[C@H](C(=O)NCC(=O)N1CCC[C@H]1C(=O)N[C@@H](CC(N)=O)C(=O)N[C@H](C(=O)N[C@@H](Cc1ccc(O)cc1)C(N)=O)[C@@H](C)O)C(C)C)[C@@H](C)O, also called compound 56)
